Data published in patent US20250326828A1 (STAIDSON BEIJING BIOPHARMACEUTICALS, published 2025).
Changes are numbered by the printed parent chain.

T1: human GDF15-his (human)
T1 chain: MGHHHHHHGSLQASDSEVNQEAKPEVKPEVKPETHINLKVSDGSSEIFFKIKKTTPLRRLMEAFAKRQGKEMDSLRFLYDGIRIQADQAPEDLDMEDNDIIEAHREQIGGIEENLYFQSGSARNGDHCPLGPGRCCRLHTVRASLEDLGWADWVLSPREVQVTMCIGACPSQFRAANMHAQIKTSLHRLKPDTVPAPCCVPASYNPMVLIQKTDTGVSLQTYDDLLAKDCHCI

T2: human GDF15-hFc (human)
T2 construct: Recombinant hFc-tagged fusion protein expressed in 293F cells
T2 chain: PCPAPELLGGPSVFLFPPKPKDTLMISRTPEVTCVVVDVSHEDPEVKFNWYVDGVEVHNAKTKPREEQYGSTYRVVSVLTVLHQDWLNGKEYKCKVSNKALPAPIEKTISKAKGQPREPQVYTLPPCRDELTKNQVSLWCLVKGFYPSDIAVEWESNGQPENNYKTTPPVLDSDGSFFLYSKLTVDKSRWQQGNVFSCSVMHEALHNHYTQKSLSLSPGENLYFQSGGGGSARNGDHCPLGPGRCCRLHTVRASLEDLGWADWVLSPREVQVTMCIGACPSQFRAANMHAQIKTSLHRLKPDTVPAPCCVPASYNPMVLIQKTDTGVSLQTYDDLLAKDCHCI

B1: GDF-R37-rabIg1 (antibody, V domains shown)
VH: QQLKESGGRLVTPGTPLTLTCTASGFSLSNYYMSWVRQAPGEGLEWIGMISFSGTTYATWAKGRFTISKTSTTVDLKITSPTTEDTATYFCARVVYAGWTYPLGIWGPGTLVTISS
VL: AVVLTQTAASVSEPVGGTVTIKCQASQSISSVLSWYQQKPGQPPKALIYEASILASGVPSRFKGSGSGTDFTLTISDLECADAATYYCQANYDVYNYGNPFGGGTEVVVK
notes: Full-length rabbit antibody: rabbit IgG1 heavy constant and rabbit light constant; also called GDF15-R37-rabIg1
B2: hum_R37-10 (antibody, V domains shown)
VH: EVQLVESGGGLVKPGGSLRLSCAASGFSLSNYYMSWVRQAPGKGLEWIGMISFSGTTYATWAKGRFTISRDDSKNTVYLQINSLKTEDTAVYFCARVVYAGWTYPLGIWGQGTLVTVSS
VL: DIQMTQSPSSLSASVGDRVTITCQASQSISSVLSWYQQKPGKPPKALIYEASILASGVPSRFSGSGSGTDFTLTISSLQPEDFATYYCQANYDVYNYGNPFGGGTKVEIK
notes: Tested in human IgG1 format
B3: hum_R37-12 (antibody, V domains shown)
VH: B2 VH with I48V, V77L, I81M
VL: B2 VL
notes: Tested in human IgG1 format
B4: hum_R37-6 (antibody, V domains shown)
VH: B2 VH with I48V, V77L, I81M
VL: B2 VL with M4L
notes: Tested in human IgG1 format
B5: hum_R37-4 (antibody, V domains shown)
VH: B2 VH
VL: B2 VL with M4L
notes: Tested in human IgG1 format
B6: hum_R37-17 (antibody, V domains shown)
VH: B2 VH with I48V
VL: B2 VL with A46L
notes: Tested in human IgG1 format
B7: hum_R37-16 (antibody, V domains shown)
VH: B2 VH
VL: B2 VL with A46L
notes: Tested in human IgG1 format
B8: GDF-R35-rabIg1 (antibody, V domains shown)
VH: B1 VH with Q2S, K4E, I114V
VL: B1 VL with V2I, V3N, L4M, A8P, A46V, I53T, L54Q
notes: Full-length rabbit antibody: rabbit IgG1 heavy constant and rabbit light constant; also called GDF15-R35-rabIg1
B9: GDF-R45-rabIg1 (antibody, V domains shown)
VH: B1 VH with Q2S, L3V, N30D, S34T, T70A, I114V
VL: B1 VL with A1Y, V3M, L4M, A8P, A9P, A46V, I53T
notes: Full-length rabbit antibody: rabbit IgG1 heavy constant and rabbit light constant; also called GDF15-R45-rabIg1
B10: GDF-R44-rabIg1 (antibody, V domains shown)
VH: QSVKESGGRLVTPGTPLTLTCKASGFSLSTYWMSWVRQAPGKGLEWIGTIYAGSGGTWYASWVKGRFTISKTSTTVDLKMTSLTTEDTATYFCVRGPNYSDAIWGPGTLVTVSS
VL: DIVLTQTAASVSEPVGGTVTIKCQASEYIYSSLAWYQQKPGQPPKLLIYDASDLASGVPSRFKGSGYGTEFTLTISGVQCGDAATYYCQCTDLSSSAGNTFGGGTEVVVK
notes: Full-length rabbit antibody: rabbit IgG1 heavy constant and rabbit light constant; also called GDF15-R44-rabIg1
B11: GDF-R54-rabIg1 (antibody, V domains shown)
VH: QQLKESGGRLVTPGTPLTLTCTVSGFSLSSYDMTWVRQVPGKGLEWIGIINNSGNTYYASWAKGRFTISKTSTTVDLKITSPTTEDTATYFCARGILVYADYGDHNLWGPGTLVTVSS
VL: DVVMTQTASPVSAAVGGTVTINCQASEDIYTNLAWFQQKPGQPPKLLIYAASTLASGVPSRFSGSGSGTEFTLTISGLQCDDAATYFCLGVYTYISADGAFGGGTEVVVK
notes: Full-length rabbit antibody: rabbit IgG1 heavy constant and rabbit light constant; also called GDF15-R54-rabIg1

Biological target: T1, human GDF15-his
Experiment: cell-based or functional assay

Row | IC50 (read off the curve), SRE-luciferase signal in 293T-GFRAL/RET-Luc cells with human GDF15-his | Binder
1 | ~0.1 nM | B1

Biological target: T1, human GDF15-his
Experiment: ELISA as in Example 2: plate coated with the antibody, graded human GDF15-his, anti-his-HRP, OD450; the sheet's x axis reads 'Log GDF15 Antibody (nM)'
Protocol: (§1) ELISA binding assay: The purified monoclonal antibody was subjected to a binding assay with human GDF15-his protein. The binding assay was designed to characterize the binding activity of the anti-GDF15 antibody. Briefly, a 96-well plate was coated with anti-GDF15 antibody (200 ng/well) and incubated for 1 hour at 37° C. The plates were washed with PBST and then blocked for 1 hour at room temperature using 1% BSA. Then 100 µl/well of gradient-diluted human GDF15-his solution (dose range 0-50 μg/ml) was added into plates. After incubation, 100 μl of anti-his tag secondary antibody (anti-his-HRP (1:2000), Bersee, cat #BHR790) was added to each well. Finally, the TMB solution (100 μl/well) was added. 2M H₂SO₄ was used to stop the reaction. The OD450 was measured, and the binding curves were generated by PRISM software to analyze the affinity of candidate antibodies to human GDF15 antigen, and EC₅₀ value were calculated.

Row | EC50 (read off the curve) | Binder
2 | ~80 nM | B1
3 | ~80 nM | B2
4 | ~80 nM | B3

Biological target: T1, human GDF15-his
Experiment: cell-based or functional assay
Remark: another data set of the same source

Row | IC50 (read off the curve), SRE-luciferase signal in 293T-GFRAL/RET-Luc cells with human GDF15-his | Binder
5 | ~0.05 nM | B1
6 | ~0.06 nM | B2
7 | ~0.06 nM | B4
8 | ~0.06 nM | B5

Biological target: T1, human GDF15-his
Experiment: ELISA as in Example 2: plate coated with the antibody, graded human GDF15-his, anti-his-HRP, OD450; the sheet's x axis reads 'Log GDF15 Antibody (nM)'
Remark: another data set of the same source
Protocol: as §1

Row | EC50 (read off the curve) | Binder
9 | ~60 nM | B1
10 | ~60 nM | B4
11 | ~60 nM | B5

Biological target: T1, human GDF15-his
Experiment: cell-based or functional assay
Remark: another data set of the same source

Row | IC50 (read off the curve), SRE-luciferase signal in 293T-GFRAL/RET-Luc cells with human GDF15-his | Binder
12 | ~0.06 nM | B1
13 | ~0.05 nM | B3
14 | ~0.08 nM | B6
15 | ~0.08 nM | B7

Biological target: T1, human GDF15-his
Experiment: cell-based or functional assay
Remark: another data set of the same source

Row | IC50, 293T-GFRAL/RET-Luc SRE luciferase reporter cells stimulated with human GDF15-his (15 ng/ml) | Binder
16 | 0.21 nM | B8
17 | 0.15 nM | B1
18 | 0.18 nM | B9
19 | 0.27 nM | B10
20 | 0.18 nM | B11

Biological target: T1, human GDF15-his
Experiment: cell-based or functional assay
Remark: another data set of the same source

Row | IC50 (read off the curve), SRE-luciferase signal in 293T-GFRAL/RET-Luc cells with human GDF15-his | Binder
21 | ~0.2 nM | B1

Biological target: T1, human GDF15-his
Experiment: ELISA; antibody coated, human GDF15-his titrated, anti-his-HRP detection
Protocol: as §1

Row | EC50 | Binder
22 | 31.3 nM | B8
23 | 43.1 nM | B1
24 | 68.9 nM | B9
25 | 54.8 nM | B10
26 | 30.9 nM | B11

Biological target: T1, human GDF15-his
Experiment: ELISA as in Example 2: plate coated with the antibody, graded human GDF15-his, anti-his-HRP, OD450; the sheet's x axis reads 'Log GDF15 antibody (nM)'
Protocol: as §1

Row | EC50 (read off the curve) | Binder
27 | ~200 nM | B1
28 | ~200 nM | B6
29 | ~200 nM | B7

Biological target: T2, human GDF15-hFc
Experiment: competition ELISA; GFRAL-his coated, antibody titrated against human GDF15-hFc, anti-human IgG-HRP detection
Protocol: (§2) The ELISA assay was performed to measure the inhibitory activity of anti-GDF15 antibodies in concentration gradients to block GDF15 binding to GFRAL receptor. IC₅₀ values were used as a measure for neutralizing activity of candidate molecules. Briefly, 96-well plates were coated with 100 ng/well of GFRAL-his protein (SEQ ID NO: 74), and incubated for 1 h at 37° C. The plates were washed with PBST and then blocked for 1 hour at 37° C. with 1% BSA. Gradient-diluted antibodies (dose range 0˜10 μg/ml) was added into each well, immediately followed by equal volume of human GDF15-hFc protein ([…]). After incubation and washing, 100 μl of anti-human IgG secondary antibody (goat anti-human IgG-HRP, Sigma, A8667) was added to each well. Finally, TMB solution (100 μl/well) was added. 2M H₂SO₄ was used to stop the reaction. The OD450 was measured and the binding curve was generated by PRISM to calculate the IC₅₀ value.

Row | IC50 | Binder
30 | 1.32 nM | B8
31 | 1.28 nM | B1
32 | 1.56 nM | B9
33 | 1.98 nM | B10
34 | 0.82 nM | B11

Biological target: T2, human GDF15-hFc
Experiment: competition ELISA as in Example 2; GFRAL-his coated, antibody titrated against human GDF15-hFc
Protocol: as §2

Row | IC50 | Binder
35 | 2.49 nM | B1
36 | 1.86 nM | B2
37 | 1.83 nM | B3
38 | 1.33 nM | B6
39 | 1.72 nM | B4
40 | 1.63 nM | B7
41 | 1.76 nM | B5
